Consider three molecules from publication PMC5802723, “Pro-metastatic collagen lysyl hydroxylase dimer assemblies stabilized by Fe^2+-binding” (Nature Communications, 2018).

For data set [1], the target named is bovine skin collagen substrate containing no telopeptides (Bovine PureCol) (bovine) (UniProt P02453).
In data set [2] the target is L230 LH domain (amino acids 680-895), wild type (Acanthamoeba polyphaga mimivirus). Briefly: SEC-MALS; L230 variants, 3 mg/ml, 150 ul, Superdex 75; 20 mM Tris pH 8, 200 mM NaCl, 0.02% sodium azide, room temperature. Background: In gel filtration, larger molecules generally elute earlier.
For data set [3] the target is unchanged. In words: MST; Atto647-labelled L230 (40 nM, 10 ul) mixed with equal volume of unlabelled L230 (8.5 uM-0.5 nM); incubated at 25 °C for 15 min, measured at 20 °C; dimer to monomers.
Data set [4] shares this target. In words: SAXS; L230 LH domain in solution, three concentrations diluted from 6 mg/ml, merged; SIBYLS beamline.
Data set [5] deals with the molecule itself. In words: SEC-MALS; Human LH2 proteins, 2 mg/ml, 100 ul, Superdex 200; 20 mM Tris pH 8, 200 mM NaCl, 0.02% sodium azide, room temperature.

bovine skin collagen substrate containing no telopeptides (Bovine PureCol) (bovine), sequence (P02453 162-1217, chain 1 of 2): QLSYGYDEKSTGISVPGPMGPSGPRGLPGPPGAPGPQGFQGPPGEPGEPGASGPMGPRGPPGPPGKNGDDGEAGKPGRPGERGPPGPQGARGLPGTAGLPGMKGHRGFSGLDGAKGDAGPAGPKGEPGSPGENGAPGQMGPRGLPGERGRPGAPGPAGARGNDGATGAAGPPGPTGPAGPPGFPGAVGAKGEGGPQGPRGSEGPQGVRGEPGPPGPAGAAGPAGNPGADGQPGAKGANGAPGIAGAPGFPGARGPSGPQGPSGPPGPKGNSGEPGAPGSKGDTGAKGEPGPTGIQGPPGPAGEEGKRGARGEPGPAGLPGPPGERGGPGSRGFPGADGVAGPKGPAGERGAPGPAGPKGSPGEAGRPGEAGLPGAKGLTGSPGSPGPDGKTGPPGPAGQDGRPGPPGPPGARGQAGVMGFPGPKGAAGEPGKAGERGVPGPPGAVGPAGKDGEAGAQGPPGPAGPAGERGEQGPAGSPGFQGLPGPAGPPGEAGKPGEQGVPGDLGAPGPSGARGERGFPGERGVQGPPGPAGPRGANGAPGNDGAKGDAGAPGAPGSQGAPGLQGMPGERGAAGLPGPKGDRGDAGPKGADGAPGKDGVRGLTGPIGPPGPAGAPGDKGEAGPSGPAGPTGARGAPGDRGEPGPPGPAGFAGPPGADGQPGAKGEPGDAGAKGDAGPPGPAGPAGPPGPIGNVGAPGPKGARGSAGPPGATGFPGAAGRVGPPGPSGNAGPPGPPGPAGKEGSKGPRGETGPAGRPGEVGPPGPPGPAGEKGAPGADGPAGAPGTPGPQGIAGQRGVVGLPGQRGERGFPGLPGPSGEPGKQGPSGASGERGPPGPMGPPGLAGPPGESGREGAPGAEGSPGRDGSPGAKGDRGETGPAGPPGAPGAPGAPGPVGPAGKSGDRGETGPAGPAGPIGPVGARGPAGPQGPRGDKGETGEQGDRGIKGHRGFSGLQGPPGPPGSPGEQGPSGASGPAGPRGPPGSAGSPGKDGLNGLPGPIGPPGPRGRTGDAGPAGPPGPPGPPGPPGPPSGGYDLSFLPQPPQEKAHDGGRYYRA
bovine skin collagen substrate containing no telopeptides (Bovine PureCol) (bovine), sequence (P02465 80-1117, chain 2 of 2, further chain): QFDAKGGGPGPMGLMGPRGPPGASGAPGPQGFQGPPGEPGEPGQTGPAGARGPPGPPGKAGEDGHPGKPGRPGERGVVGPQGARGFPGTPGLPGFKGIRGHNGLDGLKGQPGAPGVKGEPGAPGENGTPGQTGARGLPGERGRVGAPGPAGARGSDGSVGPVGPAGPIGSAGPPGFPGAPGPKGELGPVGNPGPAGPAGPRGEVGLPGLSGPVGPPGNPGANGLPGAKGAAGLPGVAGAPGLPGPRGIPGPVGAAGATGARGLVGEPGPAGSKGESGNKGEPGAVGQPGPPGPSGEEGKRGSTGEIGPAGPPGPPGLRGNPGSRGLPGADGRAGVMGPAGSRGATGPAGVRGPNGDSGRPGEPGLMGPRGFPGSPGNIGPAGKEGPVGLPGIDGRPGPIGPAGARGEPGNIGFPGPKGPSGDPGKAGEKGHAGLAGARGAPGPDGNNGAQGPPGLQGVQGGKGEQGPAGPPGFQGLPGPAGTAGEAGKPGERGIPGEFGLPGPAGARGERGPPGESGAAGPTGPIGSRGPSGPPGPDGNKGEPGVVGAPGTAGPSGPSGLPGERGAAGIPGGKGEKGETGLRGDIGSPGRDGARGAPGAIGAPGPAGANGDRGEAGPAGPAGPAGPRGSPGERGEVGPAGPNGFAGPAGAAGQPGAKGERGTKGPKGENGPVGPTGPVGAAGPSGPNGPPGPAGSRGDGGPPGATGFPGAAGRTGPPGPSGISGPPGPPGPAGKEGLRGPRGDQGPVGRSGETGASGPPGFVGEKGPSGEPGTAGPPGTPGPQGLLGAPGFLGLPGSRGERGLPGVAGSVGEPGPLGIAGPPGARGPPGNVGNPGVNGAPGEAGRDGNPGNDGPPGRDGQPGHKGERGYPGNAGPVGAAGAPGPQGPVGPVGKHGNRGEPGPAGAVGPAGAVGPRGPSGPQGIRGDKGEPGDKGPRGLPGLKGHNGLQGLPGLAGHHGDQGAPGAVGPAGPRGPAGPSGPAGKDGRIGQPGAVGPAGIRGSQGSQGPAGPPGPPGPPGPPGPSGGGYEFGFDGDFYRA

“L230 LH domain (amino acids 680-895) K804E (domain or fragment)”: the estimated Km for bovine skin collagen in the enzymatic assay (succinate production); achievable collagen concentrations did not saturate activity in data set [1] is 9.6 µM.
“L230 LH domain (amino acids 680-895), wild type (domain or fragment)”: the stoichiometry N in data set [2] and in data set [4] was 2 each time. Besides, the estimated Km for bovine skin collagen in the enzymatic assay (succinate production); achievable collagen concentrations did not saturate activity in data set [1] is 2.6 µM. In data set [3], the Kd amounted to 23.9 nM.

B1: Human LH2 recombinant protein (residues 33-758), wild type (enzyme, UniProt O00469-2 33-758, looked up)
chain: SIPTDKLLVITVATKESDGFHRFMQSAKYFNYTVKVLGQGEEWRGGDGINSIGGGQKVRLMKEVMEHYADQDDLVVMFTECFDVIFAGGPEEVLKKFQKANHKVVFAADGILWPDKRLADKYPVVHIGKRYLNSGGFIGYAPYVNRIVQQWNLQDNDDDQLFYTKVYIDPLKREAINITLDHKCKIFQTLNGAVDEVVLKFENGKARAKNTFYETLPVAINGNGPTKILLNYFGNYVPNSWTQDNGCTLCEFDTVDLSAVDVHPNVSIGVFIEQPTPFLPRFLDILLTLDYPKEALKLFIHNKEVYHEKDIKVFFDKAKHEIKTIKIVGPEENLSQAEARNMGMDFCRQDEKCDYYFSVDADVVLTNPRTLKILIEQNRKIIAPLVTRHGKLWSNFWGALSPDGYYARSEDYVDIVQGNRVGVWNVPYMANVYLIKGKTLRSEMNERNYFVRDKLDPDMALCRNAREMTLQREKDSPTPETFQMLSPPKGVFMYISNRHEFGRLLSTANYNTSHYNNDLWQIFENPVDWKEKYINRDYSKIFTENIVEQPCPDVFWFPIFSEKACDELVEEMEHYGKWSGGKHHDSRISGGYENVPTDDIHMKQVDLENVWLHFIREFIAPVTLKVFAGYYTKGFALLNFVVKYSPERQRSLRPHHDASTFTINIALNNVGEDFQGGGCKFLRYNCSIESPRKGWSFMHPGRLTHLHEGLPVKNGTRYIAVSFIDP
notes: Human lysyl hydroxylase 2 (LH2), residues 33-758; the printed end at 758 and the residues D689 and L735 fit the 758-residue isoform; also called lysyl hydroxylase 2; source: ExpiCHO cells, transient transfection, secreted
Take B1: the binding result in data set [5] is recorded as “binds”.

As a reminder, the stoichiometry N is a count of units in the complex or per binding partner. By Kd is commonly meant the constant that tells how readily two partners part at equilibrium. A lower Kd goes with a tighter complex.
